These results are taken from patent US20230093399A1, “METHODS FOR GENERATING PLURIPOTENT STEM CELL-DERIVED BROWN FAT CELLS” (AgeX Therapeutics, Inc., priority 2013, published 2023).

One experiment relates to NP110SM cells. Put plainly: Differentiation of clonal embryonic progenitor line NP110SM in HyStem beads, Illumina microarray gene expression. It counts as cell-based, human. On the procedure:
(§1) Differentiation medium is high glucose DMEM (CellGro Cat. No. 15-013-CV) with Pyruvate, 1 mM (Gibco Cat. 11360), Pen:Strep 100U/ml:100 ug/ml (Gibco Cat. No. 504284), Glutamax 2 mM (Gibco Cat. No. 35050), Dexamethasone 0.1 uM (Sigma, St. Louis, Mo., Cat. No. D1756-100), L-Proline 0.35 mM (Sigma Cat. No. D49752), 2-phospho-L-Ascorbic Acid 0.17 mM (Sigma, Cat. No. 49792, Fluka), and ITS Premix (BD, Franklin Lakes, N.J., sterile Cat. No. 47743-628) with a final concentration 6.25 ug/ml insulin, 6.25 ug/ml transferrin, 6.25 ng/ml selenious acid, serum albumin 1.25 mg/ml, 5.35 ug/ml linoleic acid. In various differentiation conditions, the Differentiation medium is supplemented with various growth factors or other differentiation factors as described herein.
HyStem-C (BioTime, Inc. Alameda, Calif.) is a matrix composed of thiol-modified gelatin and thiolated hyaluronan crosslinked in vivo or in vitro with (polyethylene glycol diacrylate (PEGDA). We observed that clonal human embryonic progenitor cell lines such as those described in the present invention, could be efficiently differentiated in high-density cultures of said crosslinked collagen and hyaluronate in the following manner. HyStem-C® (BioTime, CA, USA) is reconstituted following the manufacturer's instructions. Briefly, the HyStem component (10 mg of thiol-modified hyaluronan) is dissolved in 1.0 ml of degassed deionized water for approximately 20 min to prepare a 1% w/v solution. The Gelin-S® component (10 mg of thiol-modified gelatin (BioTime)) is dissolved in 1.0 ml of degassed deionized water to prepare a 1% w/v solution, and polyethylene glycol diacrylate (10 mg of PEGDA) is dissolved in 0.5 ml of degassed deionized water to prepare a 2% w/v solution. Then, HyStem (1 ml, 1% w/v) is mixed with Gelin-S (1 ml, 1% w/v) immediately before use. Pelleted cells are resuspended in the recently prepared HyStem:Gelin-S (1:1 v/v) mix described above. Upon the addition of the PEGDA cross-linker, the cell suspension, at a final concentration of 2.0×10^7 cells/ml is aliquoted (25 μl/aliquot) into six-well plates (Corning® 3516; VWR, PA, USA) after partial gelation. Following complete gelation (20 min), Differentiation Medium is added to each well. Plates were then placed in a humidified incubator at 37° C. with ambient O2 and 10% CO2, and the cells were fed three-times weekly. At the desired time point, hydrogel constructs were either fixed and processed for immunohistochemical analysis or lysed using RLT (Qiagen, CA, USA) with 1% beta-mercaptoethanol for total RNA to analyze transcript expression using quantitative real-time PCR (qRT-PCR) and/or whole-genome microarray.
Total RNA was extracted directly from cells growing in 6-well plates or 10 cm tissue culture dishes using Qiagen RNeasy mini kits according to the manufacturer's instructions. RNA concentrations were measured using a Beckman DU530 or Nanodrop spectrophotometer and RNA quality was determined by denaturing agarose gel electrophoresis or using an Agilent 2100 bioanalyzer. Whole-genome expression analysis was carried out using Illumina Human Ref-8v3 or Human HT-12 v4 BeadArrays, and RNA levels for certain genes were confirmed by qRT-PCR. For the Illumina BeadArrays, total RNA was linearly amplified and biotin-labeled using Illumina TotalPrep kits (Life Technologies, Temecula, Calif., USA), and cRNA was quality-controlled using an Agilent 2100 Bioanalyzer. The cRNA was hybridized to Illumina BeadChips, processed, and read using a BeadStation array reader according to the manufacturer's instructions (Illumina, San Diego, Calif., USA). Values of less than 120 relative fluorescence units (RFUs) were considered as nonspecific background signal.
The line NP110SM was then exposed to differentiation in the BAT cell differentiation protocols described herein. […]

Experiment [1] has as its system Bone marrow-derived mesenchymal stem cells (MSCs). Put plainly: Differentiation of bone marrow-derived MSCs in HyStem-C beads, FABP4 expression. The conditions noted are these: 14 days, 50 ng/mL BMP2, or 10 ng/mL BMP4, or 100 ng/mL BMP7. It counts as cell-based. Here is the method:
The Gelin-S® component (10 mg of thiol-modified gelatin (BioTime)) is dissolved in 1.0 ml of degassed deionized water to prepare a 1% w/v solution, and polyethylene glycol diacrylate (10 mg of PEGDA) is dissolved in 0.5 ml of degassed deionized water to prepare a 2% w/v solution. Then, HyStem (1 ml, 1% w/v) is mixed with Gelin-S (1 ml, 1% w/v) immediately before use. Pelleted cells are resuspended in the recently prepared HyStem:Gelin-S (1:1 v/v) mix described above. Upon the addition of the PEGDA cross-linker, the cell suspension, at a final concentration of 2.0×10^7 cells/ml is aliquoted (25 μl/aliquot) into six-well plates (Corning® 3516; VWR, PA, USA) after partial gelation. Following complete gelation (20 min), Differentiation Medium is added to each well. Plates were then placed in a humidified incubator at 37° C. with ambient O2 and 10% CO2, and the cells were fed three-times weekly. At the desired time point, hydrogel constructs were either fixed and processed for immunohistochemical analysis or lysed using RLT (Qiagen, CA, USA) with 1% beta-mercaptoethanol for total RNA to analyze transcript expression using quantitative real-time PCR (qRT-PCR) and/or whole-genome microarray.

Another experiment has as its system fBAT cells. Put plainly: Differentiation of fBAT preadipocyte cells in HyStem beads, Illumina microarray gene expression. It counts as cell-based, human. The conditions noted are these: 14 days HyStem beads, 50 ng/ml BMP4, FIG. 15 sample 2. Here is the method: as §1
HyStem-C (BioTime, Inc. Alameda, Calif.) is a matrix composed of thiol-modified gelatin and thiolated hyaluronan crosslinked in vivo or in vitro with (polyethylene glycol diacrylate (PEGDA). We observed that clonal human embryonic progenitor cell lines such as those described in the present invention, could be efficiently differentiated in high-density cultures of said crosslinked collagen and hyaluronate in the following manner. HyStem-C® (BioTime, CA, USA) is reconstituted following the manufacturer's instructions. Briefly, the HyStem component (10 mg of thiol-modified hyaluronan) is dissolved in 1.0 ml of degassed deionized water for approximately 20 min to prepare a 1% w/v solution. […] At the desired time point, hydrogel constructs were either fixed and processed for immunohistochemical analysis or lysed using RLT (Qiagen, CA, USA) with 1% beta-mercaptoethanol for total RNA to analyze transcript expression using quantitative real-time PCR (qRT-PCR) and/or whole-genome microarray.
Total RNA was extracted directly from cells growing in 6-well plates or 10 cm tissue culture dishes using Qiagen RNeasy mini kits according to the manufacturer's instructions. […] Values of less than 120 relative fluorescence units (RFUs) were considered as nonspecific background signal. […]

Where [2] appears, read: NP110SM, 14 days HyStem beads, 50 ng/ml BMP4, FIG. 15 sample 6.

B1: BMP4: Bone Morphogenetic Protein 4, TGF-beta superfamily member (protein, UniProt P12644 293-408, looked up)
Bone morphogenetic protein 4: SPKHHSQRARKKNKNCRRHSLYVDFSDVGWNDWIVAPPGYQAFYCHGDCPFPLADHLNSTNHAIVQTLVNSVNSSIPKACCVPTELSAISMLYLDEYDKVVLKNYQEMVVEGCGCR
As for B1, the “viability as measured by RNA yields and levels of the BAT markers” value in the experiment with NP110SM cells (NP110SM, 50 ng/ml of BMP4, 5 μm rosiglitazone, embedded in HyStem beads, 14-21 days) is “highest viability”. Moreover, in the experiment on NP110SM cells (setting [2]), the ADIPOQ expression result is “markedly up-regulating”, the C19ORF80 expression entry is “markedly up-regulating” and the UCP1 expression entry was “low or undetectable level”. Besides, the “expression of C19ORF80 transcript” value in the experiment with NP110SM cells (NP110SM, HyStem beads supplemented with 10 ng/ml BMP4, FIG. 2) was “highest expression”. In addition, in the experiment on NP110SM cells (addition of 50 ng/ml BMP4 to 5.0 μM rosiglitazone), the “viability of differentiating NP110SM cells as evidenced by RNA yields” value is on record as “appeared to improve the viability”. In experiment [1], the “differentiation into adipocytes as evidenced by expression of FABP4” value is reported as “caused the differentiation of the cells into adipocytes”. For the same molecule, in the experiment on fBAT cells, the ADIPOQ expression entry is recorded as “markedly up-regulating”, the C19ORF80 expression result is given as “markedly up-regulating” and the UCP1 expression entry was “low or undetectable level”.
